This is an account of results in US20240084003A1 (SIMCERE ZAIMING PHARMACEUTICAL, published 2024).

To fix the notation:
B1: F1.224.1 (antibody, human IgG1, kappa, V domains shown)
VH: EVLLHQSGPELVKPGASVKISCKASGYTFTDFNMDWVRQRHGQSLEWIGDVNPNNGGTIYNQKFKGKATLTVDKSSSTVYMDLRSLTSDDTAVYYCVRLGTSDYGEAWFISWGQGTVVTVSA
VL: DIVLTQSPASLAVSLGQRATISCRASQSVSTPRYSFMHWYQQKPGQPPKLLIKYASNLESGFPARFTGSGSGTDFTLNIHPVEEEDTAAYYCQQSWAIPWTFGGGTKLEIKR
notes: Human-murine chimeric IgG1, kappa
B2: F2.55.1 (antibody, human IgG1, lambda, V domains shown)
VH: QVTLKESGPGILQPSQTLSLTCSFSGFSLSTFPLGVGWIRQPSGKGLEWLAHVWWNDDDYYNPALKSRLTISKDTSNTRVFLSVASVDTAETATYYCARLNWDRWYFDVWGTGTTVTVSS
VL: QLVLTQSSSASFSLGASAKLTCTLSSQHSAYTVEWYQQQPLKPPKYVMELKKDGSHSTGDGIPDRFSGSSSGADRYLSISNIQPEDEAIYICGVGDTVKEQFVFGGGTKVTVLG
notes: Human-murine chimeric IgG1, lambda
B3: HA22-hIgG1 (antibody, V domains shown)
VH: EVQLVESGGGLVKPGGSLKLSCAASGFAFSIYDMSWVRQTPEKCLEWVAYISSGGGTTYYPDTVKGRFTISRDNAKNTLYLQMSSLKSEDTAMYYCARHSGYGTHWGVLFAYWGQGTLVTVSA
VL: DIQMTQTTSSLSASLGDRVTISCRASQDISNYLNWYQQKPDGTVKLLIYYTSILHSGVPSRFSGSGSGTDYSLTISNLEQEDFATYFCQQGNTLPWTFGCGTKLEIKR
B4: F1.120.15 (antibody, human IgG1, kappa, V domains shown)
VH: QVQLQQSGPELVKPGASVKISCKASGNAFSNSWMNWVKQRPGKGLEWIGRVYSEDGDTQYNGKFRDKATLTADRSTSTAYMQLSSLTSEDSAVYFCARWLIYYGTYGAMDYWGQGTSVTVSS
VL: B3 VL with S30N, Q37H, Y50F, I53R, L54P, H55Y, F83I, C100G
notes: as for B1
B5: F1.280.1 (antibody, human IgG1, kappa, V domains shown)
VH: QIQLVQSGPELKKPGETVKISCKASGYTFTTYGMSWVKQTPGKGLTWMGWINTDSGVPTYADDFKRRFAFSLEASATTAYLQINNLKNEDTATYFCARGGPDYWGQGTTLTVSS
VL: DILLTQSPATLSVTPGETVSLSCRASQSIYKNLHWYHQKSHRSPRLLIKYASDSISGIPSRFTGSGSGTNFTLSINSVKPEDEGIYYCLQGYIVPLTFGAGTKLELKR
notes: as for B1
B6: F1.200.11 (antibody, human IgG1, kappa, V domains shown)
VH: QNQLVQSGPELKKPGETVKISCKASGYTFTTAGMQWVQKMPGKGFKWIGWINTLSGEPKYAEDFKGRFAFSLETSATTAYLQISNLKNEDTATYFCARAYYSNLYWYFDVWGTGTTVTVSS
VL: DIVMTQSQKFMSTTVGDRVTITCKASQNVVTAVAWYQQKPGQSPKVLIYSASNRYSGVPDRFTGSGSGTDFTLTISNMHSEDLANYFCHQYSSYPFTFGSGTKLEIKR
notes: as for B1
B7: F1.17.1 (antibody, human IgG1, kappa, V domains shown)
VH: QVQLKESGPGLVAPSQSLSITCTVSGFSLSRYTVHWVRQPPGKGLEWLGMIWGGGSTDYNSALKSRLSISKDNSKSQVFLKMNSLQTDDTAMYYCARPHDFDAGGFAYWGQGTLVTVSA
VL: QIVLTQSPAILSTSPGEKVTMTCSASSRVNYMYWYQQKPGSSPRLLIYDTSNLASGVPVRFSGSGSGTSYSLTISRMEAEDAATYYCQQWTSYPLTFGAGTKLELKR
notes: as for B1
B8: F1.216.2 (antibody, human IgG1, kappa, V domains shown)
VH: QVQLQQSGPEVVRPGASVKISCKASGYAFSSSWMNWMKQRPGKALEWIGRIYPGDGDTNYSGEFKVKATLTADKSSSTAYMQLSSLTSEDSAVYFCAREGSYYSNPWYFDYWGQGTTLTVSS
VL: DVLVTQTPLSLPVSLGDQASISCRSSQSIVQSNGDTYLEWYLQKPGQSPKLLIYKVSNRFSGVPDRFSGSGSGTDFTLKISRVEAEDLGVYYCFQGSHVPFTFGSGTKLEIKR
notes: as for B1
B9: F1.105.11 (antibody, human IgG1, kappa, V domains shown)
VH: EVQLQQSGPVLVKPGASVKMSCKASGYTFSDYFMNWVKQSHGKSLEWIGIINSYSGGTSYNQKFKGKATLTVDKSSSTAYMELNSLTSEDSAVYYCARWMDYWGQGTSVTVSS
VL: DVQITQSPSYLAASPGETITINCRTSESISKHLAWYQEKPGKTNKLLIYSGSTLQSGIPSRFSGSGSGTDFTLTISSLEPEDFAMYYCQQHNEYPWTFGGGTKLEIKR
notes: as for B1
B10: F2.180.16 (antibody, human IgG1, lambda, V domains shown)
VH: EVKLVESGGGLVLPGGSLKISCAASGFTFSDYYMYWIRQTPDKRLEWVAYISNTGYSTFYPDSVKGRFTVSRDNAKNTLYLQMSRLQSEDTAMYYCARHGILYAMDYWGQGTSVTVSS
VL: QPVLTQSSSASFSLGASAKLTCTLSSQYSTYTIGWYQQQPLKPPKYVMELKHDGSRHTGDGIPDRFSGSSSGADRYLSISNIQPEDEATYICGVGDTIKEQFMYVFGGGTKVTVLG
notes: as for B2
B11: F2.205.9 (antibody, human IgG1, lambda, V domains shown)
VH: QVTLKESGPGILQPSQTLSLTCSFSGFSLSTSGMGVGWIRQPSGKGLEWLAHIWWDDDEYYNPALKSRLTISKDTSKNQVFLKIANVDTADTATYYCARISIPYGYYDWFFDVWGTGTTVTVSA
VL: QAVVTQESALTTSPGETVTLTCRSSTGAVTTRNYANWVQEKPDHLFTGLIGGTNNRAPGVPARFSGSLIGDKAALTITGAQTEDEAIYFCALWYSNHFIFGSGTKVTVLG
notes: as for B2

Usually EC50 (read off the curve) stands for the midpoint of the concentration-response curve. A high value points to a less potent agent.

Residue numbers refer to the chain shown, from its start.

In the first experiment the target is T1, human CD22-ECD-His protein (human, UniProt P20273 20-687).
T1 construct: Made in house in HEK293E; also called hCD22-ECD-His; recombinant human CD22-ECD His protein; not shown: His tag
T1 sequence: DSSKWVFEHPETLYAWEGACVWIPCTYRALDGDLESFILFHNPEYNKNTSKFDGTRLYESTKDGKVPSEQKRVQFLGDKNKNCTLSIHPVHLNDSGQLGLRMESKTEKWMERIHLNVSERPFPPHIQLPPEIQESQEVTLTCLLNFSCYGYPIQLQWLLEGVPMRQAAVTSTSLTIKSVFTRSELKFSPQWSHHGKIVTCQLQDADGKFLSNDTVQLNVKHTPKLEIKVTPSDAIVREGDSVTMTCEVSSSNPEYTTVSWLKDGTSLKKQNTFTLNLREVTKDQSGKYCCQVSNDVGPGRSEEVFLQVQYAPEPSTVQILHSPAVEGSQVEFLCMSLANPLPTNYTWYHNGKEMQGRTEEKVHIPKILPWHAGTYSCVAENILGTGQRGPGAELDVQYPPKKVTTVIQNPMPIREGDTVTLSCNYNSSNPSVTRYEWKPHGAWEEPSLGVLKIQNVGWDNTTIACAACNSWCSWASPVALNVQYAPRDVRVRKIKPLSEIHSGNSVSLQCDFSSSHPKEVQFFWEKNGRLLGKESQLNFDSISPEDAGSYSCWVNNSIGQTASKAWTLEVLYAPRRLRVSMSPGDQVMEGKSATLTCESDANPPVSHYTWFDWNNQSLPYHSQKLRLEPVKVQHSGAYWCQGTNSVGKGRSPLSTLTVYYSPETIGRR
Description: ELISA, Ab 0.001 nM. In a few lines:
(§1)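 Plates coated overnight at 4 °C with 2 μg/mL CD22-ECD-His and blocked with 2% BSA in PBS. Chimeric antibody bound at 37 °C for 2 h, followed by HRP-labeled secondary antibody at 37 °C for 2 h. TMB read-out developed 30 min at room temperature and stopped with 1.0 N HCl.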
For orientation: In an ELISA, binding on a coated surface is turned into a signal by an enzyme label.
B1 displayed an OD450 of 1.08 OD450.
The molecule B2 yielded an OD450 of 0.44 OD450.
Same read-out and setting: in the case of B3 it was 0.89 OD450.
The same measure, in the same setting: in the case of B4 it was 1.21 OD450; in that of B5, 0.81 OD450.
Same read-out and setting: in the case of B6 it was 0.85 OD450.
As for B7, the OD450 is 0.75 OD450.
In the case of B8, the OD450 was determined as 1.71 OD450.
The same measure, in the same setting: in the case of B9 it was 0.53 OD450; in that of B10, 0.61 OD450; in that of B11, 0.4 OD450.

For another experiment, the target named is T1, human CD22-ECD-His protein. Nature of the experiment: ELISA, Ab 0.0001 nM. An outline of the steps: as §1
B1 returned an OD450 of 0.34 OD450.
The same measure, in the same setting: in the case of B2 it was 0.23 OD450.
Consider B3, for which the OD450 came out at 0.33 OD450.
Turning to B4, the OD450 stood at 0.42 OD450.
In turn, B5 gave an OD450 of 0.24 OD450.
Consider B6, for which the OD450 was determined as 0.51 OD450.
For the molecule B7, the OD450 turned out to be 0.2 OD450.
The same measure, in the same setting: in the case of B8 it was 0.45 OD450.
B9 displayed an OD450 of 0.14 OD450.
B10 registered an OD450 of 0.31 OD450.
Still for that read-out and setting: in the case of B11 it was 0.24 OD450.

Another experiment has as its target T1, human CD22-ECD-His protein. Nature of the experiment: ELISA, human CD22-ECD-His coated. In a few lines:
as §1
With B1, the “EC50 (read off the curve)” value is around 0.02 nM.
B2: the “EC50 (read off the curve)” value was around 0.06 nM.
B3: the “EC50 (read off the curve)” value is around 0.02 nM.
Same read-out and setting: in the case of B4 it was around 0.02 nM; in that of B5, around 0.02 nM.
For the molecule B6, the “EC50 (read off the curve)” value was around 0.03 nM.
Take B7: the concentration for a half-maximal effect (EC50 (read off the curve)) is around 0.03 nM.
For B8, the concentration giving a half-maximal response (EC50 (read off the curve)) is around 0.006 nM.
For B9, the 50% effective concentration (EC50 (read off the curve)) was around 0.04 nM.
Still for that read-out and setting: in the case of B11 it was around 0.06 nM.

Another experiment has as its target T2, murine CD22 protein (ACROBiosystems, SI2-M52Ha) (murine, UniProt P35329 22-708).
T2 construct: extracellular domain; also called murine CD22-ECD; murine CD22-ECD-His
T2 sequence (looked up): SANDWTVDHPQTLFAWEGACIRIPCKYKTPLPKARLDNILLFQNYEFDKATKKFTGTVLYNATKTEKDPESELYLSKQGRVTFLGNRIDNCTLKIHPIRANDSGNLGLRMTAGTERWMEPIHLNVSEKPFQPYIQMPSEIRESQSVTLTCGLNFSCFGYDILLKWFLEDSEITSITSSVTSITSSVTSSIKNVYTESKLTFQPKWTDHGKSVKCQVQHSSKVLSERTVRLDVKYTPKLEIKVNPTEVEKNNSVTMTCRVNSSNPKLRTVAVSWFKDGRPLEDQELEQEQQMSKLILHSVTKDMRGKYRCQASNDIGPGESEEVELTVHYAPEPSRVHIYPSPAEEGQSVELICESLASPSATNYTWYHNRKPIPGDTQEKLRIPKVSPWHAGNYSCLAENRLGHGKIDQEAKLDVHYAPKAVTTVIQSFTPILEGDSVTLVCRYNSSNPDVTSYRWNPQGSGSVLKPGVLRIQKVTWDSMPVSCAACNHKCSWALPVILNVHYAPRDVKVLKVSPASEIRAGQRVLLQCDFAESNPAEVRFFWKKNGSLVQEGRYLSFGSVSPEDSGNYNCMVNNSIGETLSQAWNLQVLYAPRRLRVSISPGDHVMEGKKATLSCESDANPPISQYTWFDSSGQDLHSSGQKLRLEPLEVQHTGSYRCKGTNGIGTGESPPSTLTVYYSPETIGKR
Nature of the experiment: ELISA, murine CD22-ECD-His coated. An outline of the steps: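 Plates were coated overnight at 4° C with 2 μg/mL CD22 protein in PBS and blocked with PBS + 2% BSA. Chimeric antibodies were incubated for 2 h at 37° C, then HRP-labelled secondary for 2 h at 37° C. Bound antibody was read by TMB colour development (30 min, RT) stopped with 1.0 N HCl.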
Consider B1, for which the binding result is “no binding (tested: 100 nM)”.
The same measure, in the same setting: in the case of B2 it was “no binding (tested: 100 nM)”; in that of B3, “no binding (tested: 100 nM)”; in that of B4, “no binding (tested: 100 nM)”.
In the case of B5, the binding result is given as “no binding (tested: 100 nM)”.
The same measure, in the same setting: in the case of B6 it was “no binding (tested: 100 nM)”; in that of B7, “no binding (tested: 100 nM)”; in that of B8, “no binding (tested: 100 nM)”.
On the same count and under the same terms, in the case of B9 it was “no binding (tested: 100 nM)”.
Still for that read-out and setting: in the case of B10 it was “no binding (tested: 100 nM)”; in that of B11, “no binding (tested: 100 nM)”.
